According to PMC12809078, “CtBP1/2 oligomerization promotes G9a-Mediated transcriptional repression” (The Journal of Biological Chemistry, 2025):

T1: His6-MBP-G9a^641-1193 (WT) (human, UniProt Q96KQ7 641-1193)
T1 construct: G9a (EHMT2), human, residues 641-1193 (ANK, Pre-SET and SET domains); also called WT G9a; source: E. coli, purified
T1 sequence (looked up): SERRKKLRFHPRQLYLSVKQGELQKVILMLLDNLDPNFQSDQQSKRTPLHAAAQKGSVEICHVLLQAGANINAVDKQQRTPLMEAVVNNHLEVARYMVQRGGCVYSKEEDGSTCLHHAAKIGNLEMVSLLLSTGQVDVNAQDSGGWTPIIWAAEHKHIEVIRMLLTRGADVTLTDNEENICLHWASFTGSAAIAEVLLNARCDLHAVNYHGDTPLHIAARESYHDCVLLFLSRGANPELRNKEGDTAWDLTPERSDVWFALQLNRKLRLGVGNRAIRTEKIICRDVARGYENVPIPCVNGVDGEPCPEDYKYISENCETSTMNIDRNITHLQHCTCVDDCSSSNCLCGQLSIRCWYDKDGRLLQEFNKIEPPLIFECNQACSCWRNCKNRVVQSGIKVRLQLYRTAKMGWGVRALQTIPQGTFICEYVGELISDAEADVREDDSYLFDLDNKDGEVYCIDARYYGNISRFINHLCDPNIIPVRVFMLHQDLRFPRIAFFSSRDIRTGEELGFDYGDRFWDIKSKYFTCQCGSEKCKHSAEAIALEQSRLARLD

B1: full-length SUMO-CtBP2 (natural protein)
chain: not shown
notes: Named SUMO-CtBP2 in the pull-downs; also called SUMO-CtBP2-FL; CtBP2-FL; source: E. coli Rosetta 2 (DE3), purified (Ni-NTA); not shown: SUMO, N-terminal, kept

Key:
Settings in all cases: both partners purified
[1] = target: T1, His6-MBP-G9a^641-1193 (WT); assay: pull-down; MBP pull-down of His6-MBP-G9a(641-1193) WT or Δ885–893 with full-length CtBP2; same procedure as the FLAG pull-down with the respective affinity resin
[2] = target: B1; assay: pull-down; FLAG-tagged G9a (or GLP) fragments immobilised on anti-FLAG resin, incubated with CtBP protein 2 h at 4 °C; 50 mM Tris-HCl pH 8.0, 150 mM NaCl, 2 mM DTT, 0.1% NP-40; eluted with FLAG peptide, SDS-PAGE
[3] = target: full-length SUMO-CtBP1 (human, UniProt Q13363 1-440); assay: as above
[4] = target: T2, CtBP2 (residues 31–364) (human, UniProt P56545 31-364); assay: as above
T2 construct: Tag-free by the methods; source: E. coli Rosetta 2 (DE3), purified (Ni-NTA, SUMO protease, SEC; ion exchange and gel filtration for crystals); not shown: His6, N-terminal, cleaved; SUMO, N-terminal, cleaved

Row | binding result [1] | binding result [2] | binding result [3] | binding result [4] | Binder
1 | binds | – | – | – | B1
2 | – | binds | – | – | NKEGDTAWDLTEERSDVWFALQLNRKLRLGVGN (domain or fragment, human, UniProt Q96KQ7 881-913, looked up, source: E. coli Rosetta 2 (DE3), purified; not shown: SUMO, N-terminal, kept; FLAG, C-terminal, kept) [SUMO-G9a^881–913-FLAG P892E]
3 | – | binds | binds | binds | NKEGDTAWDLTPERSDVWFALQLNRKLRLGVGN (domain or fragment, human, UniProt Q96KQ7 881-913, looked up, also called Pre-SET fragment; G9a Pre-SET domain; not shown: SUMO, N-terminal, kept; FLAG, C-terminal, kept) [SUMO-G9a (881–913)-FLAG]
4 | – | binds | – | – | NKEGDTAWDLRPERSDVWFALQLNRKLRLGVGN (domain or fragment, human, UniProt Q96KQ7 881-913, looked up, source: E. coli Rosetta 2 (DE3), purified; not shown: SUMO, N-terminal, kept; FLAG, C-terminal, kept) [SUMO-G9a^881–913-FLAG T891R]
5 | – | binds | – | – | SUMO-G9a^881–1210-FLAG (domain or fragment, human, UniProt Q96KQ7 881-1210, looked up, G9a (EHMT2), human, residues 881-1210; also called CD; G9a C-terminal catalytic domain; not shown: SUMO, N-terminal, kept; FLAG, C-terminal, kept) NKEGDTAWDLTPERSDVWFALQLNRKLRLGVGNRAIRTEKIICRDVARGYENVPIPCVNGVDGEPCPEDYKYISENCETSTMNIDRNITHLQHCTCVDDCSSSNCLCGQLSIRCWYDKDGRLLQEFNKIEPPLIFECNQACSCWRNCKNRVVQSGIKVRLQLYRTAKMGWGVRALQTIPQGTFICEYVGELISDAEADVREDDSYLFDLDNKDGEVYCIDARYYGNISRFINHLCDPNIIPVRVFMLHQDLRFPRIAFFSSRDIRTGEELGFDYGDRFWDIKSKYFTCQCGSEKCKHSAEAIALEQSRLARLDPHPELLPELGSLPPVNT
